We go through 7 molecules from patent US20150174203A1 (ICAHN SCHOOL OF MEDICINE AT MOUNT SINAI, published 2015).

B3: human Angptl-2 with FLAG tag at the C-terminus, mammalian-expressed (ligand, not shown: small tags and cut ends)
chain: QEDGFEGTEEGSPREFIYLNRYKRAGESQDKCTYTFIVPQQRVTGAICVNSKEPEVLLENRVHKQELELLNNELLKQKRQIETLQQLVEVDGGIVSEVKLLRKESRNMNSRVTQLYMQLLHEIIRKRDNALELSQLENRILNQTADMLQLASKYKDLEHKYQHLATLAHNQSEIIAQLEEHCQRVPSARPVPQPPPAAPPRVYQPPTYNRIINQISTNEIQSDQNLKVLPPPLPTMPTLTSLPSSTDKPSGPWRDCLQALEDGHDTSSIYLVKPENTNRLMQVWCDQRHDPGGWTVIQRRLDGSVNFFRNWETYKQGFGNIDGEYWLGLENIYWLTNQGNYKLLVTMEDWSGRKVFAEYASFRLEPESEYYKLRLGRYHGNAGDSFTWHNGKQFTTLDRDHDVYTGNCAHYQKGGWWYNACAHSNLNGVWYRGGHYRSRYQDGVYWAEFRGGSYSLKKVVMMIRPNPNTFH
notes: also called Angptl-2-FLAG; A2-Flag (mammalian)
B4: LILRA2 (receptor, UniProt Q8N149 24-483, looked up)
chain: GHLPKPTLWAEPGSVIIQGSPVTLRCQGSLQAEEYHLYRENKSASWVRRIQEPGKNGQFPIPSITWEHAGRYHCQYYSHNHSSEYSDPLELVVTGAYSKPTLSALPSPVVTSGGNVTLQCVSQVAFDGFILCKEGEDEHPQRLNSHSHARGWSWAIFSVGPVSPSRRWSYRCYAYDSNSPYVWSLPSDLLELLVPGVSKKPSLSVQPGPMVAPGESLTLQCVSDVGYDRFVLYKEGERDFLQRPGWQPQAGLSQANFTLGPVSPSHGGQYRCYSAHNLSSEWSAPSDPLDILITGQFYDRPSLSVQPVPTVAPGKNVTLLCQSRGQFHTFLLTKEGAGHPPLHLRSEHQAQQNQAEFRMGPVTSAHVGTYRCYSSLSSNPYLLSLPSDPLELVVSEAAETLSPSQNKTDSTTTSLGQHPQDYTVENLIRMGVAGLVLVVLGILLFEAQHSQRSLQDAAGR
notes: whole, on cells

The target of assay [1] is T1, paired immunoglobulin-like receptor B (PirB) (mouse, UniProt P97484 25-841).
T1 construct: whole, on cells
T1 sequence (looked up): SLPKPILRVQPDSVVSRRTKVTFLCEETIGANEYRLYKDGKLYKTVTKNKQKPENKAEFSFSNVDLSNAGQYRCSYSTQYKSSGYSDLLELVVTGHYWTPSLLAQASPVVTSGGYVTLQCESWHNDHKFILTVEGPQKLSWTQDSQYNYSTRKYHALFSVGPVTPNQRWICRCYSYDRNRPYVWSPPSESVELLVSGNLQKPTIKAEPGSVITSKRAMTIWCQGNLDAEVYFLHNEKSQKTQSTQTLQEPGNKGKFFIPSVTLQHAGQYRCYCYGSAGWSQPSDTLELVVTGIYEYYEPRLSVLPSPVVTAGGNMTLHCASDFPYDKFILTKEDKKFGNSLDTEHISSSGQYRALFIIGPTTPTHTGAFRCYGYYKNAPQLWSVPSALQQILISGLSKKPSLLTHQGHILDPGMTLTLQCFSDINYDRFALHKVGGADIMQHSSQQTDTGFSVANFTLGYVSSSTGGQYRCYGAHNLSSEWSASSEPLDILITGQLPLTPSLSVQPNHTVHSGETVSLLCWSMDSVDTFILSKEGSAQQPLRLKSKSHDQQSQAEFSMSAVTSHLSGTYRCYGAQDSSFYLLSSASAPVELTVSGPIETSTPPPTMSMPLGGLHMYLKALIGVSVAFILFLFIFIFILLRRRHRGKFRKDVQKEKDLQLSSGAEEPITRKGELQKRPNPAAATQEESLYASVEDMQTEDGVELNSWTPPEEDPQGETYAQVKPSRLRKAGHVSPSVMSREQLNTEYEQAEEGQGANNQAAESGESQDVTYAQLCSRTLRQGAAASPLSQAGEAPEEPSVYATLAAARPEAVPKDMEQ
The assay can be described thus: flow cytometry on PirB-transfected 293T cells. On the procedure: (§1) Plasmids and proteins. […] Angptl-2-FLAG was purified using M2 resin. Purified GST-Angptl-5 was purchased from Abnova. Bacterially-expressed Flag-Angptl-2 and Angptl-2-Flag were constructed in pET-26b(+) vector, and GST-Angptls-FLAG in pGEX vector, and expressed and purified from bacteria. […] Anti-LILRB2-PE was used as indicated. The cells were analyzed using either a FACSCalibur or FACSAria instrument (Becton Dickinson).

Assay [2] has as its target T2, human Angptl-7 with FLAG tag at the C-terminus (human, UniProt O43827 27-346).
T2 construct: not shown: FLAG tag at the C-terminus
T2 sequence: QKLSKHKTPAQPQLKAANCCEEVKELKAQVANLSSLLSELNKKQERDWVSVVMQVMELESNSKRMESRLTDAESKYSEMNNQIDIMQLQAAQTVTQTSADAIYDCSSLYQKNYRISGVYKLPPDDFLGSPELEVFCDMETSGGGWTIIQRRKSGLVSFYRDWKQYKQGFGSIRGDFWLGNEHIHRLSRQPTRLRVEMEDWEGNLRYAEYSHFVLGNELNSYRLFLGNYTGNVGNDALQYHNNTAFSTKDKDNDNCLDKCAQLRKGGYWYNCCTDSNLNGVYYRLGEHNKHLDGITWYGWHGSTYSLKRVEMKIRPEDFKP
The experiment in a line: flow cytometry, 293T cells transfected with mouse LAIR1, anti-FLAG-APC against anti-LAIR1-PE; left gate of the same panel 56; Control panel 14 (left) and 15 (right). As to the method: as §1
In general terms: Flow cytometry measures light scatter and fluorescence of single cells or particles in a stream.

The target of assay [3] is T3, LILRA1 (UniProt O75019 17-489, limits assumed).
T3 construct: whole, on cells
T3 sequence (O75019 17-489 limits assumed): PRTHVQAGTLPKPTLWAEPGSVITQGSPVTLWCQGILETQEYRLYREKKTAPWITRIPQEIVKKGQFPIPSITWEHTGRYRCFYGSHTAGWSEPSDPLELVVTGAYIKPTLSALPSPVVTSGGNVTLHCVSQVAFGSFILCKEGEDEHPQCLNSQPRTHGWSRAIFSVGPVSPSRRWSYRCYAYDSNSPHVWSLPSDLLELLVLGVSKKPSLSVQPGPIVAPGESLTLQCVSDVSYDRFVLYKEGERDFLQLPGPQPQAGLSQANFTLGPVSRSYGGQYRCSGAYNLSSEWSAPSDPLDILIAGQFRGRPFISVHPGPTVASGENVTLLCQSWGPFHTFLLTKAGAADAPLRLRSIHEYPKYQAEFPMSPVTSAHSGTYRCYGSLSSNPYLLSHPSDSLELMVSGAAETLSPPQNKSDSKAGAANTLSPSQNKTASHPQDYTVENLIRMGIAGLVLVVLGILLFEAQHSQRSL
The experiment in a line: flow cytometry on transfected 293T cells. As to the method:
as §1

Assay [4] deals with T4, LILRB1 (human, UniProt Q8NHL6 24-650).
T4 construct: also called leukocyte immunoglobulin-like receptor B1
T4 sequence (Q8NHL6 other isoform, or with tags, fused parts or gaps limits assumed): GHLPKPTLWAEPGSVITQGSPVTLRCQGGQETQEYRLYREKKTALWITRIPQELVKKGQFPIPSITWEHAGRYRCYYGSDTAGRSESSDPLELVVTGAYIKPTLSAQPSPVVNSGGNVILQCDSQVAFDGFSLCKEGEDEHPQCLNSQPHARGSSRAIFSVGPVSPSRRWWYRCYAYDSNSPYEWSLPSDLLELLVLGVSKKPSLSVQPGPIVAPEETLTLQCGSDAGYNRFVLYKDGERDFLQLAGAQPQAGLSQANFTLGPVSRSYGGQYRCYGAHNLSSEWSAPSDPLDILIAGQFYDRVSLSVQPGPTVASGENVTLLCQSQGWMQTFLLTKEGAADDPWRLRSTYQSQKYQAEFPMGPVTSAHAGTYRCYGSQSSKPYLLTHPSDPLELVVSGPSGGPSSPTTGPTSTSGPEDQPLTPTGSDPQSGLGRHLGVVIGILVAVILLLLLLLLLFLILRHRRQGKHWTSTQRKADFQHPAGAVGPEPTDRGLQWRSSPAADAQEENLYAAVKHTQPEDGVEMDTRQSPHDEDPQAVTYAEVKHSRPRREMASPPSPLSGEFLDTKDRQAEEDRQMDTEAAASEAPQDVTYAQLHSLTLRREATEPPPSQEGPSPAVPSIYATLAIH
The experiment in a line: flow cytometry on transfected 293T cells. As to the method: as §1

Assay [5] has as its target T5, LILRA4 (UniProt P59901 24-499, limits assumed).
T5 construct: whole, on cells
The experiment in a line: flow cytometry on transfected 293T cells. On the procedure:
as §1

Assay [6] has as its target B3. The assay can be described thus: flow cytometry on transfected 293T cells. As to the method:
as §1

Assay [7] has as its target T6, human LILRB2 (human, UniProt Q8N423 22-597).
T6 construct: also called leukocyte immunoglobulin-like receptor B2
The assay can be described thus: flow cytometry on human cord blood LILRB2+ cells. On the procedure:
as §1

Assay [8] addresses T1, paired immunoglobulin-like receptor B …. The assay can be described thus: flow cytometry, PirB-transfected 293T cells, GST-Angptl-5-FLAG according to the legend, Angptl binding against PirB staining; left gate of the same panel 46; Control panel 123 (left) and 183 (right). As to the method: as §1
In assay [9] the target is T7, LILRB5 (human, UniProt O75023 24-590).
T7 construct: also called leukocyte immunoglobulin-like receptor B5
T7 sequence (O75023 other isoform, or with tags, fused parts or gaps limits assumed): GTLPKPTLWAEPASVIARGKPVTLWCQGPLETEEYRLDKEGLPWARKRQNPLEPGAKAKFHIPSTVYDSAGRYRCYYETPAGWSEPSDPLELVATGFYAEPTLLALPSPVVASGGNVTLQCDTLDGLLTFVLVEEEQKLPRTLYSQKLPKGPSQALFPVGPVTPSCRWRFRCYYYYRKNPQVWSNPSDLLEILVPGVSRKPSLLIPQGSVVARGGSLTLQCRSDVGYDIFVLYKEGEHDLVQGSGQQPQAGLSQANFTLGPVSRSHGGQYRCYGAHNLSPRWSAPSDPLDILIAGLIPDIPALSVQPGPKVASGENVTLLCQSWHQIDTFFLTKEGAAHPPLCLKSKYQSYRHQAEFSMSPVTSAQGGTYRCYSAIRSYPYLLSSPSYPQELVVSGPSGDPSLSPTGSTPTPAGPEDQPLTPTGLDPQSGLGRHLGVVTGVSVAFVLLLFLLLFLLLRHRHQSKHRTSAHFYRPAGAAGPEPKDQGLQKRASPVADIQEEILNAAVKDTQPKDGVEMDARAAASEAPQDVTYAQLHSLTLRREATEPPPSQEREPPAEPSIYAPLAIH
The assay can be described thus: flow cytometry on transfected 293T cells. As to the method: as §1

The target of assay [10] is T8, LILRB3 (human, UniProt O75022 24-631).
T8 construct: also called leukocyte immunoglobulin-like receptor B3
T8 sequence (O75022 other isoform, or with tags, fused parts or gaps limits assumed): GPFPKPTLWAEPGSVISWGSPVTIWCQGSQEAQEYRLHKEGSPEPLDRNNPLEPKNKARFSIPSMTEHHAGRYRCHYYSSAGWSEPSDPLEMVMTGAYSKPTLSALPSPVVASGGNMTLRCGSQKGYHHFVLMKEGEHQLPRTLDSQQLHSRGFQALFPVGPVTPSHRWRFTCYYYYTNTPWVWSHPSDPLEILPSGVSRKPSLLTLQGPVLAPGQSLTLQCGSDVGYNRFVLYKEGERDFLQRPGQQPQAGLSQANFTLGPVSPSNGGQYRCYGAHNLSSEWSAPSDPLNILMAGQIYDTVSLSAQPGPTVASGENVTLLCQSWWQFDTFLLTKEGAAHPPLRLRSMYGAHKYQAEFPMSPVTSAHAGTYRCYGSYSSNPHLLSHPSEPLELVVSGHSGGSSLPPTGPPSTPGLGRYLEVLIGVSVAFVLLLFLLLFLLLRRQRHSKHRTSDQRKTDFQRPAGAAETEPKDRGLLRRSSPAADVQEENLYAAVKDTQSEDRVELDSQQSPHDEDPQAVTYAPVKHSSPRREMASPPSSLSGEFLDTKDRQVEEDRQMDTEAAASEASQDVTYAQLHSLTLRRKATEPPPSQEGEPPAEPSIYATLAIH
The experiment in a line: flow cytometry on transfected 293T cells. As to the method:
as §1

Assay [11] addresses B4. The assay can be described thus: flow cytometry on transfected 293T cells. On the procedure: as §1

T5 sequence (P59901 24-499 limits assumed): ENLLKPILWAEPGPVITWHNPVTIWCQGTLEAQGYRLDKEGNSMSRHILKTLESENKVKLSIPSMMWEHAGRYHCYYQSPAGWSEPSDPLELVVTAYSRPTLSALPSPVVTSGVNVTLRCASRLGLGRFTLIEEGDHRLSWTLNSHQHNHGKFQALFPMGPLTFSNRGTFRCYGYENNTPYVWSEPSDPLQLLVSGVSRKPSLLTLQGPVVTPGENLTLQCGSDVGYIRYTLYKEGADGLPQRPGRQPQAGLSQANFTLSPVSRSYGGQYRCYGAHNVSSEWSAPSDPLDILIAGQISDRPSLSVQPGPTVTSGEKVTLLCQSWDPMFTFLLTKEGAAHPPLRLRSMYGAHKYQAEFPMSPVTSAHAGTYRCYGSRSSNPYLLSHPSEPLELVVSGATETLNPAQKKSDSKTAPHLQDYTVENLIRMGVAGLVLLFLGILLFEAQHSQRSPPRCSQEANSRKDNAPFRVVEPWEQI
T6 sequence (Q8N423 22-597 D161E/M235V limits assumed): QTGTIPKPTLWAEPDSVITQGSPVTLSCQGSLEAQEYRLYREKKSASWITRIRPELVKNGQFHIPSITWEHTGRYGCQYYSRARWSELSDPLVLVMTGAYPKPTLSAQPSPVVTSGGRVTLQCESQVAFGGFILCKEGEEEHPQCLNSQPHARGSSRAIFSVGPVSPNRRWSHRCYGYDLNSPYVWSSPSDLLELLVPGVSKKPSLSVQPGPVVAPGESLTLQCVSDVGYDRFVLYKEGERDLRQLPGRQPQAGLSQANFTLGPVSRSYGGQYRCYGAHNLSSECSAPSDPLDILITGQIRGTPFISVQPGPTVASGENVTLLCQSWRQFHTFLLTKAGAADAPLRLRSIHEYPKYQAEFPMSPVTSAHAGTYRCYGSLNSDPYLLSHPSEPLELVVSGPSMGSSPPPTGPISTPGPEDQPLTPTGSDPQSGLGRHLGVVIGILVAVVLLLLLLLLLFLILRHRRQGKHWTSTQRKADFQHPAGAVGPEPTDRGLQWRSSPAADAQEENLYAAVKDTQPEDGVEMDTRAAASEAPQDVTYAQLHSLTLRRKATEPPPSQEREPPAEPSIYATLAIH

B1: human Angptl-3 with FLAG tag at the C-terminus (ligand)
chain: DQDNSSFDSLSPEPKSRFAMLDDVKILANGLLQLGHGLKDFVHKTKGQINDIFQKLNIFDQSFYDLSLQTSEIKEEEKELRRTTYKLQVKNEEVKNMSLELNSKLESLLEEKILLQQKVKYLEEQLTNLIQNQPETPEHPEVTSLKTFVEKQDNSIKDLLQTVEDQYKQLNQQHSQIKEIENQLRRTSIQEPTEISLSSKPRAPRTTPFLQLNEIRNVKHDGIPAECTTIYNRGEHTSGMYAIRPSNSQVFHVYCDVISGSPWTLIQHRIDGSQNFNETWENYKYGFGRLDGEFWLGLEKIYSIVKQSNYVLRIELEDWKDNKHYIEYSFYLGNHETNYTLHLVAITGNVPNAIPENKDLVFSTWDHKAKGHFNCPEGYSGGWWWHDECGENNLNGKYNKPRAKSKPERRRGLSWKSQNGRLYSIKSTKMLIHPTDSESFE
notes: not shown: FLAG tag at the C-terminus
Take B1: the binding result in [1] was “binds”.

B2: mouse LAIR1 (receptor, UniProt Q8BG84 22-263, looked up)
chain: QEGSLPDITIFPNSSLMISQGTFVTVVCSYSDKHDLYNMVRLEKDGSTFMEKSTEPYKTEDEFEIGPVNETITGHYSCIYSKGITWSERSKTLELKVIKENVIQTPAPGPTSDTSWLKTYSIYIFTVVSVIFLLCLSALLFCFLRHRQKKQGLPNNKRQQQRPEERLNLATNGLEMTPDIVADDRLPEDRWTETWTPVAGDLQEVTYIQLDHHSLTQRAVGAVTSQSTDMAESSTYAAIIRH
notes: whole, on cells
On to B2, for which, in [2], the binding result is reported as “binds”.

On to B3, for which the binding result in assay [3], in assay [4] and in assay [5] was “no binding” each time.

As to B4, in [6], the binding result is recorded as “no binding”.

B5: GST-Angptl-3 (ligand)
chain: SRIDQDNSSFDSLSPEPKSRFAMLDDVKILANGLLQLGHGLKDFVHKTKGQINDIFQKLNIFDQSFYDLSLQTSEIKEEEKELRRTTYKLQVKNEEVKNMSLELNSKLESLLEEKILLQQKVKYLEEQLTNLIQNQPETPEHPEVTSLKTFVEKQDNSIKDLLQTVEDQYKQLNQQHSQIKEIENQLRRTSIQEPTEISLSSKPRAPRTTPFLQLNEIRNVKHDGIPAECTTIYNRGEHTSGMYAIRPSNSQVFHVYCDVISGSPWTLIQHRIDGSQNFNETWENYKYGFGRLDGEFWLGLEKIYSIVKQSNYVLRIELEDWKDNKHYIEYSFYLGNHETNYTLHLVAITGNVPNAIPENKDLVFSTWDHKAKGHFNCPEGYSGGWWWHDECGENNLNGKYNKPRAKSKPERRRGLSWKSQNGRLYSIKSTKMLIHPTDSESFE
notes: also called GST-Angptls-FLAG (Angptl-3); not shown: glutathione S-transferase (GST) tag (pGEX vector); FLAG tag (GST-Angptls-FLAG)
Take B5: the binding result in assay [7] was “binds”.

B6: GST-Angptl-5-FLAG, in house, bacterially expressed (ligand)
chain: NCVHHSTDSSVVNIVEDGSNAKDESKSNDTVCKEDCEESCDVKTKITREEKHFMCRNLQNSIVSYTRSTKKLLRNMMDEQQASLDYLSNQVNELMNRVLLLTTEVFRKQLDPFPHRPVQSHGLDCTDIKDTIGSVTKTPSGLYIIHPEGSSYPFEVMCDMDYRGGGWTVIQKRIDGIIDFQRLWCDYLDGFGDLLGEFWLGLKKIFYIVNQKNTSFMLYVALESEDDTLAYASYDNFWLEDETRFFKMHLGRYSGNAGDAFRGLKKEDNQNAMPFSTSDVDNDGCRPACLVNGQSVKSCSHLHNKTGWWFNECGLANLNGIHHFSGKLLATGIQWGTWTKNNSPVKIKSVSMKIRRMYNPYFK
notes: also called GST-A5 (in house, bacterial); GST-A5-FLAG; not shown: glutathione S-transferase (GST) tag at the N-terminus (pGEX vector); FLAG tag at the C-terminus
As to B6, in [8], the binding result is on record as “binds”.

B7: GST-Angptl-5 (purified, purchased from Abnova) (ligand)
chain: NCVHHSTDSSVVNIVEDGSNAKDESKSNDTVCKEDCEESCDVKTKITREEKHFMCRNLQNSIVSYTRSTKKLLRNMMDEQQASLDYLSNQVNELMNRVLLLTTEVFRKQLDPFPHRPVQSHGLDCTDIKDTIGSVTKTPSGLYIIHPEGSSYPFEVMCDMDYRGGGWTVIQKRIDGIIDFQRLWCDYLDGFGDLLGEFWLGLKKIFYIVNQKNTSFMLYVALESEDDTLAYASYDNFWLEDETRFFKMHLGRYSGNAGDAFRGLKKEDNQNAMPFSTSDVDNDGCRPACLVNGQSVKSCSHLHNKTGWWFNECGLANLNGIHHFSGKLLATGIQWGTWTKNNSPVKIKSVSMKIRRMYNPYFK
notes: Bought fusion protein; Used radio-iodinated in the liquid-phase assay; also called GST-A5 (Abnova); ^125I-GST-Angptl-5; not shown: glutathione S-transferase (GST) tag at the N-terminus
For the molecule B7, the binding result in assay [9] is “binds”; in assay [10] it was “binds”; in assay [11], “no binding”; in [3], “no binding”; in assay [4], “no binding”; in assay [5], “no binding”. For the same molecule, in assay [1], the binding result is recorded as “binds”.
